Common to all, as to experiment: BLI
For orientation: In BLI a coated tip is dipped into the sample, and binding shifts an interference pattern.

Assay [1] concerns the target T1, recombinant human αMβ2 αI domain (human).
T1 chain: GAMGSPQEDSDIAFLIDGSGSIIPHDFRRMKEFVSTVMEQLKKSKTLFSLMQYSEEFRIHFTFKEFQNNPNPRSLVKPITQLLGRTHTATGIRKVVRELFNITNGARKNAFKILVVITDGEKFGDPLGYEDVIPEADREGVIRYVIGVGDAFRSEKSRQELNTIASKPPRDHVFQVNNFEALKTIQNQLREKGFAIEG

Assay [2] concerns the target T2, human integrin αMβ2 headpiece fragment (human, UniProt P11215 17-1152; P05107 23-482).
In assay [3] the target is T1, recombinant human αMβ2 αI domain.
For assay [4], the target named is T2, human integrin αMβ2 headpiece fragment. This is another data set of the same source.

The Kd is the concentration at which binding is half-saturated. In general, koff refers to the first-order rate constant of dissociation.

B1: biotinylated avi-tagged hCD11bNb1 (VHH)
VHH: QVQLVETGGGLVQAGGSLRLSCAASGNINSFNAMGWFRQAPGKQRELVAAITFGGRTNYADSVKGRFTISRDNTKGSVYLQMNSLKPEDTAVYYCAASENNLLTGVWHYWGRGTQVTVSS
modifications: biotin
Regarding B1, the equilibrium dissociation constant (Kd) came out at 6.6 nM in assay [1] and 0.85 nM in assay [2]. The dissociation rate constant (koff) in assay [3] came out at 0.0032 s⁻¹; in assay [4], 0.00047 s⁻¹.
